In patent publication US20090138983A1 (POSTECH FOUNDATION, published 2009):

Key:
[1] = biological target: T1, T7-tagged AtBG1 (Arabidopsis thaliana β-glucosidase 1) (Arabidopsis thaliana, UniProt Q9SE50 27-528); assay: co-immunoprecipitation with anti-T7 antibody, anti-HA Western blot, densitometry
T1 construct: Co-expressed with AtBG1:HA in protoplasts; pulled down with anti-T7 antibody; also called AtBG1:T7; not shown: T7 tag
T1 sequence (looked up): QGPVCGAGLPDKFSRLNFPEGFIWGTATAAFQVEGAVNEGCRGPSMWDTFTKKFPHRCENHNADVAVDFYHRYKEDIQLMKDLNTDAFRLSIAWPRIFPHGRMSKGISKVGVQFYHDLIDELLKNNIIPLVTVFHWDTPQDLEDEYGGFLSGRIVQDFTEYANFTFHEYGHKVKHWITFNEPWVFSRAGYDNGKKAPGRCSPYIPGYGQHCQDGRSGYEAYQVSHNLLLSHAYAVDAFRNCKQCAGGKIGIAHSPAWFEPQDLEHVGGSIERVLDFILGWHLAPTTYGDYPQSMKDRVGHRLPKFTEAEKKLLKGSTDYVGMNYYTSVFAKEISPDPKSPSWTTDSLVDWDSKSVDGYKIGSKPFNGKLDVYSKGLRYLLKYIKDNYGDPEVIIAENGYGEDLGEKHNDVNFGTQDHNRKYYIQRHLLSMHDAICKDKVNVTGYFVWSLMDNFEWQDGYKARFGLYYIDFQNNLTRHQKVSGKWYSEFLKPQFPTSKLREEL
Procedure: The present inventors also investigated the mechanism by which dehydration stress activates AtBG1. […] Thus, the present inventors investigated whether the mechanism by which dehydration stress activates AtBG1 is attributed to AtBG1 polymerization. Protein extracts were prepared from protoplasts co-transformed with two differently tagged forms of AtBG1, AtBG1:HA and AtBG1:T7, according to the same method as described in the above Example, and used for co-immunoprecipitation with anti-T7 antibody. Immunoprecipitates were analyzed by Western blotting using anti-HA antibody to investigate the interaction between AtBG1 molecules. As a result, HA-tagged AtBG1 was detected in the precipitate immunoprecipitated with T7-antibody (FIG. 35). Furthermore, the amount of HA-tagged AtBG1 in the precipitate was increased by approximately 3-fold upon treatment of protoplasts with 10% PEG 8000, a chemical that induces dehydration stress, for 12 hours (measured by densitometery software, FIG. 35). Therefore, the present inventors concluded that AtBG1 undergoes homomeric interactions, which are enhanced under conditions of dehydration stress.

B1: HA-tagged AtBG1 (Arabidopsis thaliana β-glucosidase 1) (enzyme, UniProt Q9SE50 27-528, looked up)
chain: QGPVCGAGLPDKFSRLNFPEGFIWGTATAAFQVEGAVNEGCRGPSMWDTFTKKFPHRCENHNADVAVDFYHRYKEDIQLMKDLNTDAFRLSIAWPRIFPHGRMSKGISKVGVQFYHDLIDELLKNNIIPLVTVFHWDTPQDLEDEYGGFLSGRIVQDFTEYANFTFHEYGHKVKHWITFNEPWVFSRAGYDNGKKAPGRCSPYIPGYGQHCQDGRSGYEAYQVSHNLLLSHAYAVDAFRNCKQCAGGKIGIAHSPAWFEPQDLEHVGGSIERVLDFILGWHLAPTTYGDYPQSMKDRVGHRLPKFTEAEKKLLKGSTDYVGMNYYTSVFAKEISPDPKSPSWTTDSLVDWDSKSVDGYKIGSKPFNGKLDVYSKGLRYLLKYIKDNYGDPEVIIAENGYGEDLGEKHNDVNFGTQDHNRKYYIQRHLLSMHDAICKDKVNVTGYFVWSLMDNFEWQDGYKARFGLYYIDFQNNLTRHQKVSGKWYSEFLKPQFPTSKLREEL
notes: Expressed in Arabidopsis protoplasts or in 'rescued atbg1' plants and tested in protein extracts; also called AtBG1:HA; AtBG1::HA; not shown: virus HA (hemagglutinin) tag
With B1 the “ABA-GE hydrolyzing activity (ABA content by ELISA) of high against low molecular weight forms of AtBG1 after gel filtration and anti-HA immunoprecipitation” value (Q9SE50) was “High molecular weight forms exhibited 4-fold higher AtBG1 activity” and the “fold increase of the co-precipitated amount upon 10% PEG 8000 (12 hours) against untreated protoplasts” value [1] was roughly 3 fold.
